Values quoted from earlier work in publication PMC4546937.
pKd: −log10 of the molar value.

Biological target: IL-13Ralpha1 (Homo sapiens) (UniProt P78552)
UniProt P78552, sequence (P78552 22-343): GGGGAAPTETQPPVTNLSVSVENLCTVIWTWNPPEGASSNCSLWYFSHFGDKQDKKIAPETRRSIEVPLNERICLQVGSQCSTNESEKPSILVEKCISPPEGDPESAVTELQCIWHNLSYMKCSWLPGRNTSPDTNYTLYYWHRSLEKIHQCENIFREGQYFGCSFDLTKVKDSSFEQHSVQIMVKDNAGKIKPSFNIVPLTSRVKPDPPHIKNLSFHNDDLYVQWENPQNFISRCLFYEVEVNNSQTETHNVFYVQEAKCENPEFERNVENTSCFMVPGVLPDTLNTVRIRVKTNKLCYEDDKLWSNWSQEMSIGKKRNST

In the case of IL-13 (from UniProt P35225), the pKd is listed as 7.52.
